The supplement of paper PMC10567573

B1: PDZK1 (parent)
chain: FQAKKIPIVSSLADPLDTPPDSKE
B2: ZNF511 (parent)
chain: YEHHYHTLHGNVCSFCKRAFPSGH

Variants of: B1
Assay: protein stability index of a GFP-peptide fusion (GPS, HEK-293T) (PSI 1-6); higher = more stable
Conditions: c terminus: a fixed tail appended
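Note: lentivirally expressed fusions sorted by FACS into six bins by GFP to DsRed ratio, PSI derived from sequencing read proportions per bin multiplied by bin number.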

**Q.** With FQAKKIPIVSSLADTLDTPPDSKE [P15T] as the variant, how does the protein stability index read?
**A.** 3.57

**Q.** Which protein stability index does the source give for FQAKKIPIVSSLADQLDTPPDSKE [P15Q] here?
**A.** 3.71

**Q.** For FQAKKIPIVSSLADLLDTPPDSKE [P15L], which protein stability index is on record?
**A.** 2.86

**Q.** For FQAKKIPIVSSLADHLDTPPDSKE [P15H], which protein stability index is on record?
**A.** 3.85

Variants of: B2
Assay: as above
Conditions: c terminus: a fixed tail appended

**Q.** With WEHHYHTLHGNVCSFCKRAFPSGH [Y1W] as the variant, how does the protein stability index read?
**A.** 2.07

**Q.** With AEHHYHTLHGNVCSFCKRAFPSGH [Y1A] as the variant, how does the protein stability index read?
**A.** 3.02

**Q.** With FEHHYHTLHGNVCSFCKRAFPSGH [Y1F] as the variant, how does the protein stability index read?
**A.** 2.72

**Q.** With LEHHYHTLHGNVCSFCKRAFPSGH [Y1L] as the variant, how does the protein stability index read?
**A.** 2.75

**Q.** For PEHHYHTLHGNVCSFCKRAFPSGH [Y1P], which protein stability index is on record?
**A.** 2.98

**Q.** With QEHHYHTLHGNVCSFCKRAFPSGH [Y1Q] as the variant, how does the protein stability index read?
**A.** 3.62

**Q.** Which protein stability index does the source give for VEHHYHTLHGNVCSFCKRAFPSGH [Y1V] here?
**A.** 2.51

**Q.** With NEHHYHTLHGNVCSFCKRAFPSGH [Y1N] as the variant, how does the protein stability index read?
**A.** 3.38

**Q.** For HEHHYHTLHGNVCSFCKRAFPSGH [Y1H], which protein stability index is on record?
**A.** 2.81

**Q.** With EEHHYHTLHGNVCSFCKRAFPSGH [Y1E] as the variant, how does the protein stability index read?
**A.** 3

**Q.** Which protein stability index does the source give for IEHHYHTLHGNVCSFCKRAFPSGH [Y1I] here?
**A.** 2.89

**Q.** Which protein stability index does the source give for SEHHYHTLHGNVCSFCKRAFPSGH [Y1S] here?
**A.** 3.29

**Q.** For REHHYHTLHGNVCSFCKRAFPSGH [Y1R], which protein stability index is on record?
**A.** 2.22

**Q.** With DEHHYHTLHGNVCSFCKRAFPSGH [Y1D] as the variant, how does the protein stability index read?
**A.** 3.67

**Q.** With GEHHYHTLHGNVCSFCKRAFPSGH [Y1G] as the variant, how does the protein stability index read?
**A.** 2.99

**Q.** Which protein stability index does the source give for CEHHYHTLHGNVCSFCKRAFPSGH [Y1C] here?
**A.** 4.05

**Q.** For TEHHYHTLHGNVCSFCKRAFPSGH [Y1T], which protein stability index is on record?
**A.** 2.75

**Q.** With KEHHYHTLHGNVCSFCKRAFPSGH [Y1K] as the variant, how does the protein stability index read?
**A.** 3.02

**Q.** For MEHHYHTLHGNVCSFCKRAFPSGH [Y1M], which protein stability index is on record?
**A.** 2.63

**Q.** With YEHHEHTLHGNVCSFCKRAFPSGH [Y5E] as the variant, how does the protein stability index read?
**A.** 3.85

**Q.** With YEHHCHTLHGNVCSFCKRAFPSGH [Y5C] as the variant, how does the protein stability index read?
**A.** 3.95

**Q.** With YEHHGHTLHGNVCSFCKRAFPSGH [Y5G] as the variant, how does the protein stability index read?
**A.** 3.54

**Q.** Which protein stability index does the source give for YEHHKHTLHGNVCSFCKRAFPSGH [Y5K] here?
**A.** 2.54

**Q.** Which protein stability index does the source give for YEHHFHTLHGNVCSFCKRAFPSGH [Y5F] here?
**A.** 2.29

**Q.** Which protein stability index does the source give for YEHHAHTLHGNVCSFCKRAFPSGH [Y5A] here?
**A.** 2.81

**Q.** With YEHHNHTLHGNVCSFCKRAFPSGH [Y5N] as the variant, how does the protein stability index read?
**A.** 3.01

**Q.** For YEHHMHTLHGNVCSFCKRAFPSGH [Y5M], which protein stability index is on record?
**A.** 2.39

**Q.** For YEHHDHTLHGNVCSFCKRAFPSGH [Y5D], which protein stability index is on record?
**A.** 3.51

**Q.** With YEHHLHTLHGNVCSFCKRAFPSGH [Y5L] as the variant, how does the protein stability index read?
**A.** 2.48

**Q.** For YEHHQHTLHGNVCSFCKRAFPSGH [Y5Q], which protein stability index is on record?
**A.** 3.28

**Q.** With YEHHPHTLHGNVCSFCKRAFPSGH [Y5P] as the variant, how does the protein stability index read?
**A.** 3.04

**Q.** For YEHHHHTLHGNVCSFCKRAFPSGH [Y5H], which protein stability index is on record?
**A.** 3.22

**Q.** With YEHHIHTLHGNVCSFCKRAFPSGH [Y5I] as the variant, how does the protein stability index read?
**A.** 2.68

**Q.** Which protein stability index does the source give for YDHHYHTLHGNVCSFCKRAFPSGH [E2D] here?
**A.** 2.9

**Q.** Which protein stability index does the source give for YAHHYHTLHGNVCSFCKRAFPSGH [E2A] here?
**A.** 3.31

**Q.** Which protein stability index does the source give for YLHHYHTLHGNVCSFCKRAFPSGH [E2L] here?
**A.** 1.65

**Q.** With YTHHYHTLHGNVCSFCKRAFPSGH [E2T] as the variant, how does the protein stability index read?
**A.** 3.14

**Q.** With YYHHYHTLHGNVCSFCKRAFPSGH [E2Y] as the variant, how does the protein stability index read?
**A.** 2.27

**Q.** With YIHHYHTLHGNVCSFCKRAFPSGH [E2I] as the variant, how does the protein stability index read?
**A.** 2.34

**Q.** Which protein stability index does the source give for YSHHYHTLHGNVCSFCKRAFPSGH [E2S] here?
**A.** 3.32

**Q.** For YKHHYHTLHGNVCSFCKRAFPSGH [E2K], which protein stability index is on record?
**A.** 1.76

**Q.** For YPHHYHTLHGNVCSFCKRAFPSGH [E2P], which protein stability index is on record?
**A.** 1.54

**Q.** With YFHHYHTLHGNVCSFCKRAFPSGH [E2F] as the variant, how does the protein stability index read?
**A.** 3.12

**Q.** For YWHHYHTLHGNVCSFCKRAFPSGH [E2W], which protein stability index is on record?
**A.** 2.85

**Q.** For YNHHYHTLHGNVCSFCKRAFPSGH [E2N], which protein stability index is on record?
**A.** 1.37

**Q.** With YVHHYHTLHGNVCSFCKRAFPSGH [E2V] as the variant, how does the protein stability index read?
**A.** 2.89

**Q.** With YGHHYHTLHGNVCSFCKRAFPSGH [E2G] as the variant, how does the protein stability index read?
**A.** 2.9

**Q.** With YMHHYHTLHGNVCSFCKRAFPSGH [E2M] as the variant, how does the protein stability index read?
**A.** 2.08

**Q.** For YQHHYHTLHGNVCSFCKRAFPSGH [E2Q], which protein stability index is on record?
**A.** 2.43

**Q.** For YHHHYHTLHGNVCSFCKRAFPSGH [E2H], which protein stability index is on record?
**A.** 2.66

**Q.** Which protein stability index does the source give for YCHHYHTLHGNVCSFCKRAFPSGH [E2C] here?
**A.** 2.15

**Q.** Which protein stability index does the source give for YRHHYHTLHGNVCSFCKRAFPSGH [E2R] here?
**A.** 1.8

**Q.** For YEGHYHTLHGNVCSFCKRAFPSGH [H3G], which protein stability index is on record?
**A.** 3.04

**Q.** For YEFHYHTLHGNVCSFCKRAFPSGH [H3F], which protein stability index is on record?
**A.** 2.06

**Q.** Which protein stability index does the source give for YEWHYHTLHGNVCSFCKRAFPSGH [H3W] here?
**A.** 2.12

**Q.** For YESHYHTLHGNVCSFCKRAFPSGH [H3S], which protein stability index is on record?
**A.** 2.6

**Q.** With YETHYHTLHGNVCSFCKRAFPSGH [H3T] as the variant, how does the protein stability index read?
**A.** 2.91

**Q.** With YEMHYHTLHGNVCSFCKRAFPSGH [H3M] as the variant, how does the protein stability index read?
**A.** 1.94

**Q.** Which protein stability index does the source give for YECHYHTLHGNVCSFCKRAFPSGH [H3C] here?
**A.** 3.57

**Q.** For YEQHYHTLHGNVCSFCKRAFPSGH [H3Q], which protein stability index is on record?
**A.** 2.19

**Q.** For YELHYHTLHGNVCSFCKRAFPSGH [H3L], which protein stability index is on record?
**A.** 2.13

**Q.** Which protein stability index does the source give for YEEHYHTLHGNVCSFCKRAFPSGH [H3E] here?
**A.** 2.9

**Q.** For YEPHYHTLHGNVCSFCKRAFPSGH [H3P], which protein stability index is on record?
**A.** 2.8

**Q.** Which protein stability index does the source give for YEVHYHTLHGNVCSFCKRAFPSGH [H3V] here?
**A.** 2.09

**Q.** For YEDHYHTLHGNVCSFCKRAFPSGH [H3D], which protein stability index is on record?
**A.** 3.06

**Q.** For YENHYHTLHGNVCSFCKRAFPSGH [H3N], which protein stability index is on record?
**A.** 2.52

**Q.** For YEYHYHTLHGNVCSFCKRAFPSGH [H3Y], which protein stability index is on record?
**A.** 2.23

**Q.** With YEAHYHTLHGNVCSFCKRAFPSGH [H3A] as the variant, how does the protein stability index read?
**A.** 1.97

**Q.** For YERHYHTLHGNVCSFCKRAFPSGH [H3R], which protein stability index is on record?
**A.** 2.09

**Q.** Which protein stability index does the source give for YEIHYHTLHGNVCSFCKRAFPSGH [H3I] here?
**A.** 2.18

**Q.** Which protein stability index does the source give for YEKHYHTLHGNVCSFCKRAFPSGH [H3K] here?
**A.** 2.27

**Q.** Which protein stability index does the source give for YEHPYHTLHGNVCSFCKRAFPSGH [H4P] here?
**A.** 2.38

**Q.** Which protein stability index does the source give for YEHLYHTLHGNVCSFCKRAFPSGH [H4L] here?
**A.** 2.07

**Q.** Which protein stability index does the source give for YEHSYHTLHGNVCSFCKRAFPSGH [H4S] here?
**A.** 2.43

**Q.** For YEHVYHTLHGNVCSFCKRAFPSGH [H4V], which protein stability index is on record?
**A.** 1.91

**Q.** Which protein stability index does the source give for YEHNYHTLHGNVCSFCKRAFPSGH [H4N] here?
**A.** 2.23

**Q.** Which protein stability index does the source give for YEHFYHTLHGNVCSFCKRAFPSGH [H4F] here?
**A.** 1.33

**Q.** Which protein stability index does the source give for YEHGYHTLHGNVCSFCKRAFPSGH [H4G] here?
**A.** 2.05

**Q.** Which protein stability index does the source give for YEHCYHTLHGNVCSFCKRAFPSGH [H4C] here?
**A.** 3.26

**Q.** With YEHQYHTLHGNVCSFCKRAFPSGH [H4Q] as the variant, how does the protein stability index read?
**A.** 2.1

**Q.** For YEHAYHTLHGNVCSFCKRAFPSGH [H4A], which protein stability index is on record?
**A.** 1.75

**Q.** With YEHEYHTLHGNVCSFCKRAFPSGH [H4E] as the variant, how does the protein stability index read?
**A.** 2.7

**Q.** With YEHMYHTLHGNVCSFCKRAFPSGH [H4M] as the variant, how does the protein stability index read?
**A.** 2.52

**Q.** With YEHYYHTLHGNVCSFCKRAFPSGH [H4Y] as the variant, how does the protein stability index read?
**A.** 1.93

**Q.** With YEHWYHTLHGNVCSFCKRAFPSGH [H4W] as the variant, how does the protein stability index read?
**A.** 1.73

**Q.** For YEHTYHTLHGNVCSFCKRAFPSGH [H4T], which protein stability index is on record?
**A.** 1.95

**Q.** With YEHRYHTLHGNVCSFCKRAFPSGH [H4R] as the variant, how does the protein stability index read?
**A.** 1.73

**Q.** Which protein stability index does the source give for YEHIYHTLHGNVCSFCKRAFPSGH [H4I] here?
**A.** 1.82

**Q.** For YEHKYHTLHGNVCSFCKRAFPSGH [H4K], which protein stability index is on record?
**A.** 2.03

**Q.** Which protein stability index does the source give for YEHDYHTLHGNVCSFCKRAFPSGH [H4D] here?
**A.** 2.17
